# Experimental data: article PMC11574045, “A cofactor-induced repressive type of transcription factor condensation can be induced by synthetic peptides to suppress tumorigenesis” (The EMBO Journal, 2024)
# B1: MTDH (protein, UniProt Q86UE4 1-582, looked up)
# Protein LYRIC: MAARSWQDELAQQAEEGSARLREMLSVGLGFLRTELGLDLGLEPKRYPGWVILVGTGALGLLLLFLLGYGWAAACAGARKKRRSPPRKREEAAAVPAAAPDDLALLKNLRSEEQKKKNRKKLSEKPKPNGRTVEVAEGEAVRTPQSVTAKQPPEIDKKNEKSKKNKKKSKSDAKAVQNSSRHDGKEVDEGAWETKISHREKRQQRKRDKVLTDSGSLDSTIPGIENTITVTTEQLTTASFPVGSKKNKGDSHLNVQVSNFKSGKGDSTLQVSSGLNENLTVNGGGWNEKSVKLSSQISAGEEKWNSVSPASAGKRKTEPSAWSQDTGDANTNGKDWGRSWSDRSIFSGIGSTAEPVSQSTTSDYQWDVSRNQPYIDDEWSGLNGLSSADPNSDWNAPAEEWGNWVDEERASLLKSQEPIPDDQKVSDDDKEKGEGALPTGKSKKKKKKKKKQGEDNSTAQDTEELEKEIREDLPVNTSKTRPKQEKAFSLKTISTSDPAEVLVKNSQPIKTLPPATSTEPSVILSKSDSDKSSSQVPPILQETDKSKSNTKQNSVPPSQTKSETSWESPKQIKKKKKARRET
# B2: MSGN1 (protein, UniProt A6NI15 1-193, looked up)
# Mesogenin-1: MDNLRETFLSLEDGLGSSDSPGLLSSWDWKDRAGPFELNQASPSQSLSPAPSLESYSSSPCPAVAGLPCEHGGASSGGSEGCSVGGASGLVEVDYNMLAFQPTHLQGGGGPKAQKGTKVRMSVQRRRKASEREKLRMRTLADALHTLRNYLPPVYSQRGQPLTKIQTLKYTIKYIGELTDLLNRGREPRAQSA
# B3: ATF1 (protein, UniProt P18846 1-271, looked up)
# Cyclic AMP-dependent …: MEDSHKSTTSETAPQPGSAVQGAHISHIAQQVSSLSESEESQDSSDSIGSSQKAHGILARRPSYRKILKDLSSEDTRGRKGDGENSGVSAAVTSMSVPTPIYQTSSGQYIAIAPNGALQLASPGTDGVQGLQTLTMTNSGSTQQGTTILQYAQTSDGQQILVPSNQVVVQTASGDMQTYQIRTTPSATSLPQTVVMTSPVTLTSQTTKTDDPQLKREIRLMKNREAARECRRKKKEYVKCLENRVAVLENQNKTLIEELKTLKDLYSNKSV
# B4: MLXIP (protein, UniProt Q9HAP2 2-919, looked up)
# MLX-interacting protein: AADVFMCSPRRPRSRGRQVLLKPQVSEDDDDSDTDEPSPPPASGAATPARAHASAAPPPPRAGPGREEPPRRQQIIHSGHFMVSSPHREHPPKKGYDFDTVNKQTCQTYSFGKTSSCHLSIDASLTKLFECMTLAYSGKLVSPKWKNFKGLKLQWRDKIRLNNAIWRAWYMQYLEKRKNPVCHFVTPLDGSVDVDEHRRPEAITTEGKYWKSRIEIVIREYHKWRTYFKKRLQQHKDEDLSSLVQDDDMLYWHKHGDGWKTPVPMEEDPLLDTDMLMSEFSDTLFSTLSSHQPVAWPNPREIAHLGNADMIQPGLIPLQPNLDFMDTFEPFQDLFSSSRSIFGSMLPASASAPVPDPNNPPAQESILPTTALPTVSLPDSLIAPPTAPSLAHMDEQGCEHTSRTEDPFIQPTDFGPSEPPLSVPQPFLPVFTMPLLSPSPAPPPISPVLPLVPPPATALNPPAPPTFHQPQKFAGVNKAPSVITHTASATLTHDAPATTFSQSQGLVITTHHPAPSAAPCGLALSPVTRPPQPRLTFVHPKPVSLTGGRPKQPHKIVPAPKPEPVSLVLKNARIAPAAFSGQPQAVIMTSGPLKREGMLASTVSQSNVVIAPAAIARAPGVPEFHSSILVTDLGHGTSSPPAPVSRLFPSTAQDPLGKGEQVPLHGGSPQVTVTGPSRDCPNSGQASPCASEQSPSPQSPQNNCSGKSDPKNVAALKNRQMKHISAEQKRRFNIKMCFDMLNSLISNNSKLTSHAITLQKTVEYITKLQQERGQMQEEARRLREEIEELNATIISCQQLLPATGVPVTRRQFDHMKDMFDEYVKTRTLQNWKFWIFSIIIKPLFESFKGMVSTSSLEELHRTALSWLDQHCSLPILRPMVLSTLRQLSTSTSILTDPAQLPEQASKAVTRIGKRLGES
# B5: MYCBP (protein, UniProt Q99417 2-103, looked up)
# c-Myc-binding protein: AHYKAADSKREQFRRYLEKSGVLDTLTKVLVALYEEPEKPNSALDFLKHHLGAATPENPEIELLRLELAEMKEKYEAIVEENKKLKAKLAQYEPPQEEKRAE
# B6: MYOG (protein, UniProt P15173 1-224, looked up)
# Myogenin: MELYETSPYFYQEPRFYDGENYLPVHLQGFEPPGYERTELTLSPEAPGPLEDKGLGTPEHCPGQCLPWACKVCKRKSVSVDRRRAATLREKRRLKKVNEAFEALKRSTLLNPNQRLPKVEILRSAIQYIERLQALLSSLNQEERDLRYRGGGGPQPGVPSECSSHSASCSPEWGSALEFSANPGDHLLTADPTDAHNLHSLTSIVDSITVEDVSVAFPDETMPN
# B7: MYNN (protein, UniProt Q9NPC7 1-610, looked up)
# Myoneurin: MQYSHHCEHLLERLNKQREAGFLCDCTIVIGEFQFKAHRNVLASFSEYFGAIYRSTSENNVFLDQSQVKADGFQKLLEFIYTGTLNLDSWNVKEIHQAADYLKVEEVVTKCKIKMEDFAFIANPSSTEISSITGNIELNQQTCLLTLRDYNNREKSEVSTDLIQANPKQGALAKKSSQTKKKKKAFNSPKTGQNKTVQYPSDILENASVELFLDANKLPTPVVEQVAQINDNSELELTSVVENTFPAQDIVHTVTVKRKRGKSQPNCALKEHSMSNIASVKSPYEAENSGEELDQRYSKAKPMCNTCGKVFSEASSLRRHMRIHKGVKPYVCHLCGKAFTQCNQLKTHVRTHTGEKPYKCELCDKGFAQKCQLVFHSRMHHGEEKPYKCDVCNLQFATSSNLKIHARKHSGEKPYVCDRCGQRFAQASTLTYHVRRHTGEKPYVCDTCGKAFAVSSSLITHSRKHTGEKPYICGICGKSFISSGELNKHFRSHTGERPFICELCGNSYTDIKNLKKHKTKVHSGADKTLDSSAEDHTLSEQDSIQKSPLSETMDVKPSDMTLPLALPLGTEDHHMLLPVTDTQSPTSDTLLRSTVNGYSEPQLIFLQQLY
# B8: MUSCLIN (protein, UniProt P61366 28-133, looked up)
# Osteocrin: VDVTTTEAFDSGVIDVQSTPTVREEKSATDLTAKLLLLDELVSLENDVIETKKKRSFSGFGSPLDRLSAGSVDHKGKQRKVVDHPKRRFGIPMDRIGRNRLSNSRG
# B9: MNAT1 (protein, UniProt P51948 1-309, looked up)
# CDK-activating kinase …: MDDQGCPRCKTTKYRNPSLKLMVNVCGHTLCESCVDLLFVRGAGNCPECGTPLRKSNFRVQLFEDPTVDKEVEIRKKVLKIYNKREEDFPSLREYNDFLEEVEEIVFNLTNNVDLDNTKKKMEIYQKENKDVIQKNKLKLTREQEELEEALEVERQENEQRRLFIQKEEQLQQILKRKNKQAFLDELESSDLPVALLLAQHKDRSTQLEMQLEKPKPVKPVTFSTGIKMGQHISLAPIHKLEEALYEYQPLQIETYGPHVPELEMLGRLGYLNHVRAASPQDLAGGYTSSLACHRALQDAFSGLFWQPS
# B10: MXD4 (protein, UniProt Q14582 1-209, looked up)
# Max dimerization protein 4: MELNSLLILLEAAEYLERRDREAEHGYASVLPFDGDFAREKTKAAGLVRKAPNNRSSHNELEKHRRAKLRLYLEQLKQLVPLGPDSTRHTTLSLLKRAKVHIKKLEEQDRRALSIKEQLQQEHRFLKRRLEQLSVQSVERVRTDSTGSAVSTDDSEQEVDIEGMEFGPGELDSVGSSSDADDHYSLQSGTGGDSGFGPHCRRLGRPALS
# Tested on: HEK293FT cells transfected with TF library
# Assay: Screening of TF condensates based on fluorescent puncta
# Format: cell-based
# Details: Figure 1B numerical data; TF library screen, one value per transcriptional factor
# Outline: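 HEK293FT, PEI transfection of TF library, 60 h; ±glucose 12 h; 4% PFA fix, 0.05% Triton X-100 permeabilization, 5% BSA block; anti-Flag/anti-GAL4 overnight at 4 °C, Alexa 488 secondary 1 h; high-content imaging, 50 fields/well.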
row,Molecule,Z score of condensed fraction
1,B1,1.2714
2,B2,0.1411
3,B3,-0.9514
4,B4,-0.5131
5,B5,-0.1227
6,B6,0.6311
7,B7,-0.5885
8,B8,0.265
9,B9,-0.8808
10,B10,-0.9909
